Data published in the DeepSol protein solubility set.

Experiment: soluble on expression in E. coli; label from the status in PepcDB or PDB records

| Sequence | soluble on expression in E. coli |
| --- | --- |
| IEGIPVYLLDKESGPFSFFHWIFIYPQAHPQNELSEILTHEGTHARQRHSIDVIISELMCIACWFNPFMWLMKREVRNNLEYMADNRVLEAGHDSKSYQYHLLGLAHQKSAITLSNSFNVLPLKNRITMM | not soluble |
| MGSDKIHHHHHHMSTNISLFAQVIRLLPRPLIKKLSTEFQVDKHSKHFTSWQHLVSMIFSQFSSCISLREISNGLRSATGNLNHLGICTAPSKSNLSYQNEHRTSDFFRACYYALLDYFGQQGMGQGRKFRFKQPVKLLDSTTITLCLALYDWAKYTHTKGAVKLHTLLDFKTLLPEYVHISDGKGHDGKMANSIPIPAGSIVVADRGYADTALLNSWDSTQVSFVVRHPRSLKYEVIQELELPEHGHQQILVDQRVRLTGVQTQGKYTKPLRHIALYNEQHGDVVELLTNIDTLAASSIALLYRSRWLIEIFFRNLKQRLSMKAFLGTTRNAVEVQIWTALITMLLMVYLKSIAKYRWCLSNLVSSLRINTFTKMDLMQWLNEPFTPPPEPENQLF | not soluble |
| MAHHHHHHMMDDQSSTSGGPQEGRDADHRQNHGNVLFVGNLPFQTPWQHVKDHFRKAGKVRYTDLIADRMGRPKGSALVTMVTAEGAQRAIRMYNETDFEGRRLIVRLFDDGPRPPIVQRGMMPQYDRQTQQQQPQQQSQRFRGYTGASSGGSNYNNTTNFGRRADYMGRGGYTMEEDLNATSLNDMGDSVPKPRSQQVNEFGRKLFVSNLPFDCTSSALRETFQQVGNVERAEVILGRNGKSRGMGIVVMRTEKETRLAIEEFDGIEMANRAMSVRLDNKTTA | soluble |
| MGHHHHHHHHHHSSGHIDDDDKHMTSLLSQFVSKTDFESYEDFQENFKILVPENFNFAYDVVDVYARDSPEKLAMIWCDDYGNEKIFTFKDLKYYSDKAANFFVKHGIGKGDYVMLTLKSRYDFWYCMLGLHKLGAIAVPATHMLKTRDIVYRIEKAGLKMIVCIAEDDVPEQVDEAHAECGDIPLKKAKVGGDVLEGWIDFRKELEESSPIFERPTGEVSTKNEDICLVYFSSGTAGFPKMVEHDNTYPLGHILTAKYWQNVEDDGLHYTVADSGWGKCVWGKLYGQWIAGCAVFVYDYDRFEAKNMLEKASKYGVTTFCAPPTIYRFLIKEDLSHYNFSTLKYAVVAGEPLNPEVFNRFLEFTGIKLMEGFGQTETVVTIATFPWMEPKPGSIGKPTPGYKIELMDRDGRLCEVGEEGEIVINTMEGKPVGLFVHYGKDPERTEETWHDGYYHTGDMAWMDEDGYLWFVGRADDIIKTSGYKVGPFEVESALIQHPAVLECAITGVPDPVRGQVIKATIVLTKDYTPSDSLKNELQDHVKNVTAPYKYPRIIEFVPELPKTISGKIRRVEIRDKDQSQ | soluble |
| MGSDKIHHHHHHMGTVLIHVCCAPDLLTTIFHVRDAEFFFYNPNIQPLSEYEKRREAVDKVANHFSLNVRYGEYSTEEIRKWYTAVKDYKDLGEGSKRCERCISFLLERTAQEARKRGHESFSTTLLASPRKNLPMIENIGKTIEEKYGVKFFFKNFRKGGAYQEGVRLSKELGIYRQNYCGCVFSLLERREKHAEISRKRGHM | not soluble |
| MEPSGGEQEPGAVRFLDLPWEDVLLPHVLNRVPLRQLLRLQRVSRAFRSLVQLHLAGLRRFDAAQVGPQIPRAALARLLRDAEGLQELALAPCHEWLSDEDLVPVLARNPQLRSVALGGCGQLSRRALGALAEGCPRLQRLSLAHCDWVDGLALRGLADRCPALEELDLTACRQLKDEAIVYLAQRRGAGLRSLSLAVNANVGDAAVQELARNCPELHHLDLTGCLRVGSDGVRTLAEYCPVLRSLRVRHCHHVAESSLSRLRKRGVDIDVEPPLHQALVLLQDMAGFAPFVNLQV | soluble |
| MGSDKIHHHHHHMSISVKSNRALFDLDLLRAIVVVADCGSFTTAAARLHSTQSTISQKVRRLEDMVGHRLLVRGNRDVLPTDAGQTLLGYARHMLALNDQMLEALAGAMVGTTVRLGVPEDFVGGRTTNALSAFSRLHPQVKLEVTSGLCRDLSQAYDNGELDLVLLKQRRNSREGVACWPERLQWIDSARTPAFELDPIPLVTFPPRGLYREDMINAIEGMGRRWRISFTSSSLSGIQAAVADGMGISLLPPRAATGEHRVLGAGQGLPEVDSYEIVIVHRPTADVMVKALAEVMTQLLAGGGI | not soluble |
| MSRLVLLISLVIVVASAAAPQCEVCKKVLDDVMAKVPAGDKSKPDAIGKVIREHCETTRNKENKFCFYIGALPESATSIMNEVTKPLSWSMPTEKVCLEKLKGKDAQICELKYDKPLDWKTIDLKKMRVKELKNILGEWGEVCKGCTEKAELIKRIEELKPKYVKEEL | not soluble |
| MAHHHHHHMGTLEAQTQGPGSMTGPLAAARSVAATKSMTAPTVDERPDIKKGLAGVVVDTTAISKVVPQTNSLTYRGYPVQDLAARCSFEQVAFLLWRGELPTDAELALFSQRERASRRVDRSMLSLLAKLPDNCHPMDVVRTAISYLGAEDPDEDDAAANRAKAMRMMAVLPTIVAIDMRRRRGLPPIAPHSGLGYAQNFLHMCFGEVPETAVVSAFEQSMILYAEHGFNASTFAARVVTSTQSDIYSAVTGAIGALKGRLHGGANEAVMHDMIEIGDPANAREWLRAKLARKEKIMGFGHRVYRHGDSRVPTMKRALERVGTVRDGQRWLDIYQVLAAEMASATGILPNLDFPTGPAYYLMGFDIASFTPIFVMSRITGWTAHIMEQATANALIRPLSAYCGHEQRVLPGTF | soluble |
| MGSDKIHHHHHHMNSNQLAFTIPISREMINIANKLSQQQRNEQKTREVYLNTLALLAVEFFCQCMEIETEFSKSYGLDSVVLSLMNTASIFIKDKGLLECRPVLPREDFCEIPAEILSERIGYMVVEIDELDRQAKIVGFVESVSNEKLALSKLGSLQDFLIYLQKLQKIENYDPSNPDISEIARNQLNESIVKLSKWFKGLLDSGWEYELAIAKDIPNVLAVPKDISPVNVTDKEEVGGARIIHLMHLSEPVLLILRQTRLSPDEIEIILRLYPASESIFLLDGIKMTLLDEKDNPIRQLEKQAKASNWLQLRFKGNVGDKFSLKISFRGDSVITKFII | not soluble |
| MYRPKDHGWVEVIVGPMYSGKSEELIRRIRRAKIAKQKIQVFKPEIDNRYSKEDVVSHMGEKEQAVAIKNSREILKYFEEDTEVIAIDEVQFFDDEIVEIVNKIAESGRRVICAGLDMDFRGKPFGPIPELMAIAEFVDKIQAICVVCGNPATRTQRLINGKPAFYDDPVVLIGAMESYEARCRKCHVVPQKKEVMAGDPLEHHHHHH | soluble |
| MGSDKIHHHHHHMKHYRQVVSPQLRQQALDWILAAAQRPDPALEPEFDIADDERREAKKVRNLHRHDPLFWDDWFARSGLDALVRDHLRKPRLLRHAAFIKRHADESYIPLHQDIALWEKRYESAQTFWVALTPSRNDNGGMFYYPDDRTIFPHEFDLAYPMFKCIDLQANGISREQLVDAELDAGDVLVWPARTAHGSHNNRSGQLRIGMPIVFVEDDEFHQLNREDSMKTWIASNLKSVFPDEAITEDNLDHYLPQLCDYSLKMVTFLARFSRQFGHAPKIHDFIREPRLATLSASDAGARR | not soluble |
| MGQSEPIVLVIFTNKDNKSDKPNDKLISETAKSVMKEFAAGSKNAAKELNDLEKKYNAHIGVYALDTKSGKEVKFNSDKRFAYASTSKAINSAILLEQVPYNKLNKKVHINKDDIVAYSPILEKYVGKDITLKALIEASMTYSDNTANNKIIKEIGGIKKVKQRLKELGDKVTNPVRYEIELNYYSPKSKKDTSTPAAFGKTLNKLIANGKLSKENKKFLLDLMLNNKSGDTLIKDGVPKDYKVADKSGQAITYASRNDVAFVYPK | soluble |
| MKIAIINMGNNVINFKTVPSSETIYLFKVISEMGLNVDIISLKNGVYTKSFDEVDVNDYDRLIVVNSSINFFGGKPNLAILSAQKFMAKYKSKIYYLFTDIRLPFSQSWPNVKNRPWAYLYTEEELLIKSPIKVISQGINLDIAKAAHKKVDNVIEFEYFPIEQYKIHMNDFQLSKPTKKTLDVIYGGSFRSGQRESKMVEFLFDTGLNIEFFGNAREKQFKNPKYPWTKAPVFTGKIPMNMVSEKNSQAIAALIIGDKNYNDNFITLRVWETMASDAVMLIDEEFDTKHRIINDARFYVNNRAELIDRVNELKHSDVLRKEMLSIQHDILNKTRAKKAEWQDAFKKAIDL | soluble |
| MIPGEYRLREEPIVCNRQKSATKLTVVNRGDRPVQVGSHFHFFEVNSFLEFDRQAAYGKHLNIPAGTAVRFEPGDAKQVELVPFSGERRVYGLNNMVNGPLDGNGKGGVRE | soluble |
| MNNGTVKWFNAEKGFGFIEQENGGDVFVHFSGIASDGYKTLEEGQKVTFEITEGQRGDQAVNVQTV | not soluble |
| MSLAFGNYPFLTVSEITYTNPINSNIVSEDFDVEIGEATNGTVTSRVGIRVKDITRHIGIFGSTGSGKTNTAILLASQLNAKGVKVIILDWHGEYDQLLKNGFRIYDEKTIVKINPLHLIDLDVEDTVDIIGDVLQLTDPQRFLLYTILLKLKSYRKFSINQLLEVINSIEDTSYWMRDVKYALLRKIFILFTPTASKLFSTVDETSLNDFPDYLTSSTIINLGFISNLKLRKLYSLFLIKLIVESYIREGHHHHHH | soluble |
| MGSDKIHHHHHHMSYGYDKNADDIMKNADHIFEIKGIMRFPDRLKESIGDISIRSFAKKCGLSEGVMRNYLAGKTYPSLDKLALMAEVSNKPLDWLVAGTEHNFNELNEPGSKYVIGINLEEYALIPGYRVQVSAGHGALNCDQQDPVRYLAFRRKWLKYRGFEEHELAIVWAKGDSMEPTIHSNDTLVVHLGRNSPADGHIYIFRNGDDLFVKRYQNAFGSWRLISDNPVYDKLDIPKHEQHQFEVVGQVVHIAKDIGD | not soluble |
| MESKVVVPAQGKKITLQNGKLNVPENPIIPYIEGDGIGVDVTPAMLKVVDAAVEKAYKGERKISWMEIYTGEKSTQVYGQDVWLPAETLDLIREYRVAIKGPLTTPVGGGIRSLNVALRQELDLYICLRPVRYYQGTPSPVKHPELTDMVIFRENSEDIYAGIEWKADSADAEKVIKFLREEMGVKKIRFPEHCGIGIKPCSEEGTKRLVRAAIEYAIANDRDSVTLVHKGNIMKFTEGAFKDWGYQLAREEFGGELIDGGPWLKVKNPNTGKEIVIKDVIADAFLQQILLRPAEYDVIACMNLNGDYISDALAAQVGGIGIAPGANIGDECALFEATHGTAPAYAGQDKVNPGSIILSAEMMLRHMGWTEAADLIVKGMEGAINAKTVTYDFERLMDGAKLLKCSEFGDAIIENM | soluble |
| MGSDKIHHHHHHMKRLDGIPESMLIPLIARAKEYEYEKPIIKDALSKKIFDGLDDIYKNVTCDDMSQIGISIRSVIIDSVTKRLIKDNKNLIVINIGCGLDTRFQRFNNEKISWIDLDVPESIEIRKTFFKETDSYKMIAKSMLDYSWIEDVINYKFFNSKSNILFIFEGVLMYFDESVMTKLLHTIIKKFGDHNLTFAIEFCSKTIANNTKRHKSVSKLSSQPVFKYGYNDLNELDKVLPNKMKVINEYNYFDYHKKRWGLFGYCRYIPYLKKRLNNKIVIMEYKPAKLITHN | not soluble |
